{"source": "patent US20240218030A1", "about": "(CELLEMEDY, published 2024)", "binders": {"B1": {"name": "huHF_Mutant2-dual (designed binder)", "chain": "MTTASTSQVRQNYHAASEAAINAQINLELYASYVYLSMSYYFDRDDVALKNFAKYFLHQSHEEREHAEKLMKLQNQRGGRIALADIQKPDCDDGGSYGSLYAFDIWESGLNAMECALHLEKNVNQSLLALHALATAKNDPHLCDFIETHYLNEQVKAIKELGDHVTNLRKMGAPESGLAEYLFDKHTLGDSDNESMPSFITLASLSTWEGYFDF", "notes": "Self-assembled ferritin nanoparticle of 24 monomers"}}, "molecular_target": "T1, human transferrin receptor-Fc tag standard (human, UniProt P02786 89-760, limits assumed)", "T1 construct": "Reagent coated on the ELISA plate at 2 ug/ml; also called hTfR; hTER; not shown: Fc tag", "T1 sequence (P02786 89-760 limits assumed)": "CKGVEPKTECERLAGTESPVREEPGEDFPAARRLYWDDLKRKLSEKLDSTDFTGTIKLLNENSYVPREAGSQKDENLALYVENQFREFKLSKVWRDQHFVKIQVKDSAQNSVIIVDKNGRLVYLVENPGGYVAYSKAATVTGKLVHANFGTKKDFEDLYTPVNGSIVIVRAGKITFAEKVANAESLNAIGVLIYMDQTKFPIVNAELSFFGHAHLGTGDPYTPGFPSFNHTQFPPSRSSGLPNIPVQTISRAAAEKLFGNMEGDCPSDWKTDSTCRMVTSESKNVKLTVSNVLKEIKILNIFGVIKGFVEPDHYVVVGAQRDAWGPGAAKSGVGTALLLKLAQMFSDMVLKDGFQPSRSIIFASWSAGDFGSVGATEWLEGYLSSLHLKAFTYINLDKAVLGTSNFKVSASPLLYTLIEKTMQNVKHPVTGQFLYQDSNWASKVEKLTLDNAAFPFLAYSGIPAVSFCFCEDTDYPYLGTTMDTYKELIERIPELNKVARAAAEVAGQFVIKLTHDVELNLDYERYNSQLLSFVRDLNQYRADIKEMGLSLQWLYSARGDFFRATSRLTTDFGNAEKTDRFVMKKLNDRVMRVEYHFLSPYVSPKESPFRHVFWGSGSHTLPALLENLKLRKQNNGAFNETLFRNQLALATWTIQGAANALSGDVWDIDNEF", "test": "ELISA on plate-coated human TfR-Fc with anti-His detection; Kd calculated from an expected saturation point, since the curve was not saturated at 10000 nM", "protocol": "Then, it was washed 3 times with 200 μl of PBST (PBS+Tween0.05%). An antibody (mouse anti-His tag antibody, Hisprobe) that specifically binds to the hexa-His tag was diluted 1/1000 in PBST, and the diluted solution was treated by 100 μl at room temperature for 1 hour.\nThen, it was washed 3 times with 200 μl of PBST (PBS+Tween0.05%). TMB solution expressing coloration by reacting with HRP was treated by 100 μl at room temperature for 15 minutes. After 50 μl of 1M H₂SO₄ solution was treated, optical density was measured with TECAN at a wavelength of 450 nm. This was calculated using the Langmuir equation (Table 4, FIGS. 4 to 6).\nFIG. 7 illustrates results of evaluation/comparison of the binding force of huHF_mutant1-dual and huHF_mutant2-dual to hTfR.", "data": [{"binder": "B1", "values": [{"measurement": "Kd", "value": "~4.4", "unit": "µM"}]}]}
